Experimental data taken from US20230303623A1, “PEPTIDES AND METHODS OF USE” (REALTA LIFE SCIENCES, INC., priority 2020, published 2023).
Bridges are numbered along the chain shown (N, C = ends). Where no end group is shown, it is not given here. [ ]: non-standard residue; d: D form. R8 = C=CCCCCCC[C@@](C)(N)C(=O)O; S5 = C=CCCC[C@](C)(N)C(=O)O; Sar = CNCC(=O)O

Columns and labels:
[1] = test system: antibody-initiated complement activation (lysis of AB human red blood cells by type O serum); experiment: ABO incompatibility hemolytic complement assay (CH50-type); format: cell-based; conditions: peptides 0.8 mg/ml (~0.5 mM); compared to parent peptide
Method: FIG. 1A-1B show PIC1 peptides' inhibition of complement activation in an ABO incompatibility assay. […] Inhibition of ABO incompatibility hemolysis in a CH50-type assay. Peptides are at a final concentration of 0.5 mM. Values are represented as a percent of the positive control, which consists of human 0 sera and AB red blood cells in GVBS^++ buffer. Data are the means of n=3 independent experiments±SEM.
For hemolytic complement assays, human red blood cells (RBCs) from type AB donors were purified, washed, and standardized to 1.0×10^9 cells/ml, as previously described. Human sera from type 0 donors at a 15% final concentration was combined with 0.5 mM of the peptides and the volume was brought up to 0.2 ml with GVBS^++ and 5.0×10^7 RBCs. The samples were incubated for 1 hour at 37° C. and then spun at 3,000 rpm for 5 minutes and the supernatant was collected and read at 412 nm. Values are represented as a percent of the positive control, which consists of human 0 sera and AB red blood cells in GVBS^++ buffer.
To assess the extent to which the peptide variants inhibit antibody-initiated complement activation, an ABO incompatibility ex vivo assay was utilized in which purified erythrocytes from a ‘type AB+’ donor are incubated with sera from a ‘type 0’ subject containing anti-A and anti-B antibodies. Peptides were tested at a concentration of 0.8 mg/ml (˜0.5 mM).

C1q [2] = target: T1, C1q (Homo sapiens, UniProt P02745+P02746+P02747); experiment: C1q binding ELISA-type assay; conditions: compared to parent peptide
T1 construct: purchased Complement Technology (Tyler, TX)
Method: The C1q binding assay was performed as previously described. Briefly, an Immunlon-2 HB ELISA plate was coated with 1 μg/ml C1q in bicarbonate buffer overnight at 4° C. The plates were washed with PBS-T (phosphate buffered saline+0.1% Tween) and then blocked with 1% gelatin/PBS for 2 hours at room temperature. After washing, the plates were incubated with the peptides starting at 2.5 mg/ml and then serially diluted in 1% gelatin/PBS for 1 hour at room temperature followed by washing. Plates were then probed with rabbit antibody raised against the lead peptide […] (SEQ ID NO: 2) that lacked PEGylation at 1:1000 in 1% gelatin/PBS for 1 hour at room temperature followed by a goat anti-rabbit HRP (Sigma Aldrich, St Louis, MO) at 1:1,000 in 1% gelatin/PBS for 1 hour at room temperature with a washing step in between. After addition of TMB substrate solution to the wells, the reaction was stopped using 1N H2SO4, and the plate read on a BioTek Synergy HT plate reader at 450 nm.
The astrovirus capsid protein and the PIC1 molecules derived from it inhibit classical complement pathway activation by binding to the pattern recognition molecule C1q. The inventors next tested peptide variant binding to C1q in an ELISA-type assay in which C1q is used as the capture substrate and bound peptide detected with a rabbit polyclonal antibody against the peptide portion of PA-dPEG24 ([…]-d24; SEQ ID NO: 3). Binding curves were derived for the stapled and D-amino acid peptides based on the PA-I8Sar and PA-C9Sar (FIG. 5A-5C) backbone, from which half-maximal binding concentrations were calculated (FIGS. 2A and B, respectively). […] For the peptides based on the PA-C9Sar backbone, C1q was bound to a greater degree than the parent peptide (FIG. 2B).

MPO = target: T2, MPO (Homo sapiens, UniProt P05164); experiment: MPO activity assay; format: biochemical; conditions: compared to parent peptide
T2 construct: purchased Lee BioSolutions (Maryland Heights, MO)
Method: The MPO activity assay was performed as previously described. Briefly, peptides were diluted to 12 mg/ml and serially titrated in a 96 well plate at a volume of 0.02 ml. MPO was diluted to 20 μg/ml and 0.02 ml was added to the titrated peptides. TMB (3,30,5,50-tetramethylbenzidine) (0.1 ml) was added to each well for 2 minutes, followed by 0.1 ml of 2.5 N H2SO4 for another 2 minutes, and then read on a 96 well plate reader (BioTek) at 450 nm.
To ascertain the inhibition of MPO activity by the various peptides, a range of concentrations of the stapled peptides and D-amino acid variants were tested (FIG. 3A-3B) and half-maximal activity levels were calculated from the dose-response curves (FIG. 6A-6C, respectively).

[3] = Total Antioxidant Capacity (TAC) assay; conditions: highest peptide concentration 1.5 mM; compared to parent peptide
Method: As previously reported, the TAC (Total Antioxidant Capacity) Assay (Cell Biolabs, Inc, San Diego, CA) was used to measure the antioxidant capacity of the PIC1 variants based on the reduction of copper (II) to copper (I). The kit protocol was performed per the manufacturer's recommendations.
The antioxidant properties for the PIC1 variants were evaluated in a Total Antioxidant Capacity (TAC) assay, as previously reported. Total antioxidant activity over a range of peptide concentrations were determined for the stapled and the D-amino acid peptides based on the PA-I8Sar and PA-C9Sar backbones (FIG. 4A-4B), with the activity of the highest peptide concentration reported (1.5 mM) (FIG. 5A-5C).

CTLA-4 = target: T3, CTLA-4 (Homo sapiens, UniProt P16410); experiment: Peptide binding to immobilized CTLA-4, ELISA plate-based assay; conditions: increasing amounts of peptide
T3 sequence (P16410 36-223): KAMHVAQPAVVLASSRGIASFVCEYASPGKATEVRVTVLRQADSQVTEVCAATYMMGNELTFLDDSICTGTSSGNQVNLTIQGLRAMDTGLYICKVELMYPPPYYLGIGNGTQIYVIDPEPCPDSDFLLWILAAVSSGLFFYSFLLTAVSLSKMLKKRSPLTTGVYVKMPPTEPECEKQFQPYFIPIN
Method: (§1) RLS-0134 and RLS-0150 were allowed to bind to immobilized CTLA-4, PD-1, PD-L1 on the surface of the plate. Bound C1q and MAC-1 served as a positive and negative control for peptide binding, respectively. Increasing amounts of peptides were added to the plates followed by a rabbit polyclonal antibody that recognizes the peptides and then a secondary anti-rabbit antibody conjugated with HRP. The plate was then developed by addition of TMB as the substrate for the colorimetric assay.
(§2) The inventors further evaluated if RLS-0134 and RLS-0150 could bind to the well characterized checkpoint inhibitor, cytotoxic T-lymphocyte associated protein 4 (CTLA-4 aka CD152). […] Therefore, the pharmaceutical inhibition of CTLA-4 or its ligand has been considered a promising strategy by many cancer researchers and could be a therapeutic target in cancer immunotherapy. To ascertain the ability of select PIC1 peptides to bind CTLA-4, a binding assay was performed in which these proteins were coated on a microtiter plate followed by incubation with increasing amounts of either RLS-0134 and RLS-0150. Plates coated with PD-1, PD-L1 and C1q served as a positive control for peptide binding whereas MAC-1 served as a negative control for peptide binding.

PD-1 = PD-1 (Homo sapiens, UniProt Q15116); experiment: Peptide binding to immobilized PD-1, ELISA plate-based assay; conditions: increasing amounts of peptide
Method: as §1, §2

PD-L1 = PD-L1 (Homo sapiens, UniProt Q9NZQ7); experiment: Peptide binding to immobilized PD-L1, ELISA plate-based assay; conditions: increasing amounts of peptide
Method: as §1, §2

C1q [4] = target: T1, C1q; experiment: Peptide binding to immobilized C1q (positive control), ELISA plate-based assay of Example 3; conditions: increasing amounts of peptide; positive control protein
Method: as §1, §2

MAC-1 = MAC-1 (Homo sapiens, UniProt P05107+P11215); experiment: Peptide binding to immobilized MAC-1 (negative control), ELISA plate-based assay; conditions: increasing amounts of peptide; negative control protein
Method: as §1, §2

T1 sequence (P02745 23-245): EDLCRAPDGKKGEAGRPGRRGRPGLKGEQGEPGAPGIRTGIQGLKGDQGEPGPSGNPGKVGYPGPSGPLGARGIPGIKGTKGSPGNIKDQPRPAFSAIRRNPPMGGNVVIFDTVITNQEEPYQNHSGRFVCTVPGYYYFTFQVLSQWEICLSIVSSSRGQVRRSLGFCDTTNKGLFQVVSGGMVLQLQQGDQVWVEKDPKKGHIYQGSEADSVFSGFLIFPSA
T1 sequence (P02746 28-253): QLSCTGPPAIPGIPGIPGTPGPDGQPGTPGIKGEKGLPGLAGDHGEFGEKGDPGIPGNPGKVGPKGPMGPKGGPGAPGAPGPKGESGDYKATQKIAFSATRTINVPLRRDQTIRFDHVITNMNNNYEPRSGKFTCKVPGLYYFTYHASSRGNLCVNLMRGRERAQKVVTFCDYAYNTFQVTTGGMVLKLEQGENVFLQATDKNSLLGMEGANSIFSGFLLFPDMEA
T1 sequence (P02747 29-245): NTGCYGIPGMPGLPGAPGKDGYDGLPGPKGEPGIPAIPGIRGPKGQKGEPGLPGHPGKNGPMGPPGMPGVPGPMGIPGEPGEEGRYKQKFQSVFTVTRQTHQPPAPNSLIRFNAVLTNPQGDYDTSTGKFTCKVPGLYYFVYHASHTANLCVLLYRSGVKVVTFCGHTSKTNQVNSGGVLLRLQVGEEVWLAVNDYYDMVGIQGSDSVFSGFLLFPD
PD-1, sequence (Q15116 25-288): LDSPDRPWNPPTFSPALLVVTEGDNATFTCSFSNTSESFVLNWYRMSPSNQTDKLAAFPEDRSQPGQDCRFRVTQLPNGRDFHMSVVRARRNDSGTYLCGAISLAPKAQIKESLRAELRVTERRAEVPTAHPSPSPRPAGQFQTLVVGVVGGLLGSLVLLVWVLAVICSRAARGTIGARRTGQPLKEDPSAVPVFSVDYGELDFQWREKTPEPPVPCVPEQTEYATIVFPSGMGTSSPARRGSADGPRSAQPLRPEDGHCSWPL
PD-L1, sequence (Q9NZQ7 19-290): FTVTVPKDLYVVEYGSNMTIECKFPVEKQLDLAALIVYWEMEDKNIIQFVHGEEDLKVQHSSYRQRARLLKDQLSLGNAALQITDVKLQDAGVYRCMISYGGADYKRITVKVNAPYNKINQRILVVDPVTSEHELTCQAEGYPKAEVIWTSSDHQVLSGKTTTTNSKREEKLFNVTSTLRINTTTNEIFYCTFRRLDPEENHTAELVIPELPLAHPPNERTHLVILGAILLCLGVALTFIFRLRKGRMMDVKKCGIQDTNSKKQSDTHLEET
MAC-1, sequence (P05107 23-769, other chains not shown): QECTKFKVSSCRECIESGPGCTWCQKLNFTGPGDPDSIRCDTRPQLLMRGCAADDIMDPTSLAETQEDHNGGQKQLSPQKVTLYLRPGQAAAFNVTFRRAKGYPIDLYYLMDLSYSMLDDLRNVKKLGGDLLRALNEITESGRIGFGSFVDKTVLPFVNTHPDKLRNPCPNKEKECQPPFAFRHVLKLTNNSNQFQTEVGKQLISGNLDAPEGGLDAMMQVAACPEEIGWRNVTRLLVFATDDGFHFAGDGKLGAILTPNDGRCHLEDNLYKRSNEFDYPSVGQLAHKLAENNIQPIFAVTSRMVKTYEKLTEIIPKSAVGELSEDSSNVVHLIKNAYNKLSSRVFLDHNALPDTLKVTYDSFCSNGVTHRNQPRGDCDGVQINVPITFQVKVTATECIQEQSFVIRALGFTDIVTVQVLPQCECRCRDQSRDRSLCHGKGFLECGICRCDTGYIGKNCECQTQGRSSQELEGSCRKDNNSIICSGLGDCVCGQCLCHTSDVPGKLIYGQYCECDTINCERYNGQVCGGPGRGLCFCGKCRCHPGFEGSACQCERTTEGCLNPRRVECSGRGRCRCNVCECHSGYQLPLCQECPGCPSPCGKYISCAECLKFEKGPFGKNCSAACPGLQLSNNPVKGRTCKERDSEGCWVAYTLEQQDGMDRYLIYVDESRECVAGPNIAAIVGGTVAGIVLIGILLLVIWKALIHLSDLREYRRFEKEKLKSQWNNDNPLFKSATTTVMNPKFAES
T2 sequence (P05164 279-745 limits assumed): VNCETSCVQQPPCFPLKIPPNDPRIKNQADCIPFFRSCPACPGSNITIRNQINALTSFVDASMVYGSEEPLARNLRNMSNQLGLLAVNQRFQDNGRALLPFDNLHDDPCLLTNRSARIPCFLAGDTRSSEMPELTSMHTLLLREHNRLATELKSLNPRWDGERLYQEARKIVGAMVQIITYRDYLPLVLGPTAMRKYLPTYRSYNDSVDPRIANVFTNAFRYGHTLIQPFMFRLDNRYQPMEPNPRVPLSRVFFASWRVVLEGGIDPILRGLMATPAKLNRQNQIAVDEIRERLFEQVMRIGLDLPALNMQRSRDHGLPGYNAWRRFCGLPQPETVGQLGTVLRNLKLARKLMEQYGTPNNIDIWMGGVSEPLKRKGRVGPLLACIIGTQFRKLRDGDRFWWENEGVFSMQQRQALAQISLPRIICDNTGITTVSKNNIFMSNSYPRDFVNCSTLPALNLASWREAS
T2 sequence (P05164 165-273 limits assumed): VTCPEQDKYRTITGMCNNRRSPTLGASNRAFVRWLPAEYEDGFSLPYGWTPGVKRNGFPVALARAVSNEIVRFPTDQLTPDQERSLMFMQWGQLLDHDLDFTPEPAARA

IAR8ILEP(Sar)CS5QERAA (IA[R8]ILEP[Sar]C[S5]QERAA; staple 3-10; not fully specified; printed as IAR8ILEP(Sar)CS5QERAA) [PA-0134]
inhibition of ABO incompatible hemolysis (complement inhibition), in words [1]: similar
binding to C1q (binding curves, half-maximal binding), in words (C1q [2]): markedly increased binding to C1q
inhibition of MPO activity (half-maximal values), in words (MPO): reduced inhibition of MPO activity
total antioxidant capacity, in words [3]: decreased activity compared to the parent peptide
binding to CTLA-4, in words (CTLA-4): bound CTLA-4
binding to PD-1, in words (PD-1): dose-dependent binding
binding to PD-L1, in words (PD-L1): dose-dependent binding
binding to C1q, in words (C1q [4]): dose-dependent binding
binding to MAC-1, in words (MAC-1): minimal binding
